One series deals with T1, MKbur (Methanococcoides burtonii, UniProt Q12TI0).
T1 construct: gene mvk
Put plainly: residual activity, coupled assay. The series is classed as biochemical. The following applies: 1.5 mM mevalonate, 3 mM ATP.

The target of the next series is T2, MKvar (Ramazzottius varieornatus, UniProt A0A1D1VW28).
T2 construct: gene RvY_15762-1
T2 sequence (A0A1D1VW28 1-405): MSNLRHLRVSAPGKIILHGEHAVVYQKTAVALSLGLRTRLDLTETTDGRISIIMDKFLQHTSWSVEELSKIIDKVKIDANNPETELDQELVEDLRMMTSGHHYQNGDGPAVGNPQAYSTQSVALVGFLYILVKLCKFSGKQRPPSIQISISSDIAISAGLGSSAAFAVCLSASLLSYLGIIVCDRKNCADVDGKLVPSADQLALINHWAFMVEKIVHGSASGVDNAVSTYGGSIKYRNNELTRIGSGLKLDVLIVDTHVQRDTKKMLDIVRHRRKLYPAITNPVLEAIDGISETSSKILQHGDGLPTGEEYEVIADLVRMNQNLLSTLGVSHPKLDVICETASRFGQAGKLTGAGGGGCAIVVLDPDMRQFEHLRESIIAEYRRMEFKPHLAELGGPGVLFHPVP
Put plainly: residual activity, coupled assay. The series is classed as biochemical.

Another series has as its target T3, MKmaz (Methanosarcina mazei, UniProt Q8PW39).
T3 construct: gene mvk
T3 sequence (Q8PW39 1-301): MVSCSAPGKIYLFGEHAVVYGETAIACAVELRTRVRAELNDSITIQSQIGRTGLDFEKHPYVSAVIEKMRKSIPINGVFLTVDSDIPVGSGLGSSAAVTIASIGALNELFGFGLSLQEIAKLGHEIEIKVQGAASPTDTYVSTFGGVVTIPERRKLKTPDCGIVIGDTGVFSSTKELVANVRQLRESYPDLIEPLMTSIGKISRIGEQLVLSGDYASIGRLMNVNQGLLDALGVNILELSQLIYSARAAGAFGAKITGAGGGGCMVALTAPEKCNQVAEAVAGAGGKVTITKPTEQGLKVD
Put plainly: residual activity, coupled assay. The series is classed as biochemical.

Substrate in series [1]: Nc1ncnc2c1ncn2[C@@H]1O[C@H](COP(=O)(O)OP(=O)(O)OP(=O)(O)O)[C@@H](O)[C@H]1O
Put plainly: purified protein. The following applies: 5 mM (RS)-mevalonate, Mg2+ 10 mM, 25 °C.

Substrate in series [2]: CC(O)(CCO)CC(=O)O
Put plainly: purified protein. The following applies: 5 mM ATP, Mg2+ 10 mM, 25 °C, racemic mevalonate.

Turning to `CC(C)=CCC/C(C)=C/COP(=O)(O)OP(=O)(O)O` [geranyl pyrophosphate], the “% residual activity at 100 μM” value on MKbur is on record as “MKbur, like MKmaz, appears to be less sensitive to inhibition”. Moreover, the remaining activity at 100 µM was under 20% on MKvar and 92% on MKmaz.

As to `CC(C)=CCC/C(C)=C/CC/C(C)=C/COP(=O)(O)OP(=O)(O)O` [farnesyl pyrophosphate], the “% residual activity at 100 μM” value at MKbur was “MKbur, like MKmaz, appears to be less sensitive to inhibition”. Besides, the remaining activity at 100 µM stood at 0.4% on MKvar and 70% at MKmaz.

B1: MKvar (Ramazzottius varieornatus) (protein)
chain: MSNLRHLRVSAPGKIILHGEHAVVYQKTAVALSLGLRTRLDLTETTDGRISIIMDKFLQHTSWSVEELSKIIDKVKIDANNPETELDQELVEDLRMMTSGHHYQNGDGPAVGNPQAYSTQSVALVGFLYILVKLCKFSGKQRPPSIQISISSDIAISAGLGSSAAFAVCLSASLLSYLGIIVCDRKNCADVDGKLVPSADQLALINHWAFMVEKIVHGSASGVDNAVSTYGGSIKYRNNELTRIGSGLKLDVLIVDTHVQRDTKKMLDIVRHRRKLYPAITNPVLEAIDGISETSSKILQHGDGLPTGEEYEVIADLVRMNQNLLSTLGVSHPKLDVICETASRFGQAGKLTGAGGGGCAIVVLDPDMRQFEHLRESIIAEYRRMEFKPHLAELGGPGVLFHPVP
As for B1, the Michaelis-Menten constant (Km) in “purified protein [1]” was 4844 ± 1413 µM. In addition, in “purified protein [2]”, the Km amounted to 237 ± 68 µM, the kcat turned out to be 5 ± 0.8 s⁻¹ and the specificity constant (kcat/Km) turned out to be 21000 M⁻¹ s⁻¹.

B2: MKmaz (Methanosarcina mazei Go1) (protein)
chain: MVSCSAPGKIYLFGEHAVVYGETAIACAVELRTRVRAELNDSITIQSQIGRTGLDFEKHPYVSAVIEKMRKSIPINGVFLTVDSDIPVGSGLGSSAAVTIASIGALNELFGFGLSLQEIAKLGHEIEIKVQGAASPTDTYVSTFGGVVTIPERRKLKTPDCGIVIGDTGVFSSTKELVANVRQLRESYPDLIEPLMTSIGKISRIGEQLVLSGDYASIGRLMNVNQGLLDALGVNILELSQLIYSARAAGAFGAKITGAGGGGCMVALTAPEKCNQVAEAVAGAGGKVTITKPTEQGLKVD
In the case of B2, in the series “purified protein [1]”, the Michaelis-Menten constant (Km) is recorded as 511 ± 48 µM. Besides, in the series “purified protein [2]”, the Km was found to be 123 ± 9 µM, the turnover number (kcat) is 10 s⁻¹ and the kcat/Km turned out to be 81000 M⁻¹ s⁻¹.

B3: MKbur (Methanococcoides burtonii DSM 6242) (protein)
chain: MITCSAPGKVYLFGEHAVVYGEPAICCAVDIRTRVTVSPADTITISSSLGTTGIDFEVHPYVSAVLERFQDISSFDGVDLRISSDIPVGSGLGSSAAVTVATIKAMDTLLDLGLELDDIAKMGHEVEQNIQGTASPTDTYVCTMGGVVLIPQRKKLELIDCGILIGNTNIFSSTKELVGNVADLNERFPDVVGPVLSSIGKLSVIGEGLVNDRDYVSVGELMNIDQGLLDAIGVSCAELSSLIYAARESGAYGSKITGAGGGGCMVAISPRENVDSVAEAIGMAGGKVVVANATDIGVRVECQ
B3: the Km in “purified protein [1]” amounted to 331 ± 63 µM. Moreover, in the series “purified protein [2]”, the Km is listed as 55 ± 11 µM, the turnover number (kcat) came out at 5 s⁻¹ and the catalytic efficiency (kcat/Km) was determined as 90000 M⁻¹ s⁻¹.

(Values after publication PMC10910542 (Acta Crystallographica. Section D, Structural Biology, 2024).)
